What was measured:
[1] = target: AAV2 capsid protein VP3 (AAV2) (UniProt P03135); assay: cell-based or functional assay
[2] = target: AAV1 capsid protein VP3 (AAV1); assay: cell-based or functional assay

UniProt P03135, sequence (P03135 203-735 limits assumed): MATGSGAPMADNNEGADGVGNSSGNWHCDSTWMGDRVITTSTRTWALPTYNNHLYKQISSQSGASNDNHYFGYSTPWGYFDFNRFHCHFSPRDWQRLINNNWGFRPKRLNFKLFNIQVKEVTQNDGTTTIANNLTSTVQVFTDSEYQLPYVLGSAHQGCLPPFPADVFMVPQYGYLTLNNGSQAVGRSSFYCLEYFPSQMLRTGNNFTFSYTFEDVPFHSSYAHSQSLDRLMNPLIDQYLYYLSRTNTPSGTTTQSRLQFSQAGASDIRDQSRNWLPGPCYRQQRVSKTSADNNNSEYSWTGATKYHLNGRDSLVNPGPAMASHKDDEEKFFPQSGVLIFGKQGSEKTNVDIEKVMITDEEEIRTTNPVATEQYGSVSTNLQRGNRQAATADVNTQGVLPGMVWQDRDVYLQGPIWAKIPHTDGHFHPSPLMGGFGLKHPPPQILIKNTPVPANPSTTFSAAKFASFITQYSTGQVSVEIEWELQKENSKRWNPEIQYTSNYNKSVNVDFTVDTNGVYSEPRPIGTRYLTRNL

C-terminally truncated AAP (AAPtru) of AAV2 expressed from pVP2N-gfp (from UniProt D5SGZ8 2-177)
Particle titer (AAV2 capsid ELISA) after trans-complementation [1]: 2.1e+11 | Particle titer (AAV1 capsid ELISA) after trans-complementation [2]: 3.4e+10

From patent US20120135022A1
